Data: US9163218B2, “Method for increasing the efficiency of inducing pluripotent stem cells” (GUANGZHOU INSTITUTES OF BIOMEDICINE AND HEALTH, CHINESE …, priority 2011, dated 2015)

B1: Jhdm1b: member of the JmjC-domain-containing histone demethylase family, expressed from pMXs-FLAG retroviral vector (SEQ ID NO: 2 / 8) (protein)
chain: MEAEKDSGRRLRAIDRQRYDENEDLSDVEEIVSVRGFSLEEKLRSQLYQGDFVHAMEGKDFNYEYVQREALRVPLVFRDKDGLGIKMPDPDFTVRDVKLLVGSRRLVDVMDVNTQKGTEMSMSQFVRYYETPEAQRDKLYNVISLEFSHTKLEHLVKRPTVVDLVDWVDNMWPQHLKEKQTEATNALAEMKYPKVKKYCLMSVKGCFTDFHIDFGGTSVWYHVFRGGKIFWLIPPTLHNLALYEEWVLSGKQSDIFLGDRVERCQRIELKQGYTFFIPSGWIHAVYTPVDSLVFGGNILHSFNVPMQLRIYEIEDRTRVQPKFRYPFYYEMCWYVLERYVYCVTQRSYLTQEYQRELMLIDAPRKTSVDGFSSDSWLDMEEESCEQQPQEEEEEEEDKEEEGDGADKTPKPPTDDPTSPTSTPPEDQDSTGKKPKAPAIRFLKRTLSNESEESVKSTSMPTDDPKTPTGSPATEVSTKWTHLTEFELKGLKALVEKLESLPENKKCVPEGIEDPQALLEGVKNVLKEHVDDDPTLAITGVPVVSWPKKTAKNRVVGRPKGKLGPASAVKLAANRTTAGARRRRTRCRKCEACLRTECGECHFCKDMKKFGGPGRMKQSCIMRQCIAPVLPHTAVCLVCGEAGKEDTVEEEEGKFNLMLMECSICNEIIHPGCLKIKESEGVVNDELPNCWECPKCNHAGKTGKQKRGPGFKYASNLPGSLLKEQKMNRDNKEGQEPAKRRSECEEAPRRRSDEHPKKVPADGILRRKSDDVHLRRKRKYEKPQELSGRKRASSLQTSPGSSSHLSPRPPLGSSLSPWWRSSLTYFQQQLKPGKEDKLFRKKRRSWKNAEDRLSLANKPLRRFKQEPEDDLPEAPPKTRESDQSRSSSPTAGPSTEGAEGPEEKKKVKMRRKRRLVNKELSKELSKELNHEIQKTESTLAHESQQPIKSEPESENDEPKRPLSHCERPHRFSKGLNGTPRELRHSLGPGLRSPPRVMSRPPPSASPPKCIQMERHVIRPPPISPPPDSLPLDDGAAHVMHREVWMAVFSYLSHRDLCVCMRVCRTWNRWCCDKRLWTRIDLNRCKSITPLMLSGIIRRQPVSLDLSWTNISKKQLSWLINRLPGLRDLVLSGCSWIAVSALCSSSCPLLRTLDVQWVEGLKDAQMRDLLSPPTDNRPGQMDNRSKLRNIVELRLAGLDITDVSLRLIIRHMPLLSKLQLSYCNHINDQSINLLTAVGTTTRDSLTEVNLSDCNKVTDLCLSFFKRCGNICHIDLRYCKQVTKEGCEQFIAEMSVSVQFGQVEEKLLQKLS
modifications: FLAG tag; nucleotide acid sequence of coding regions for kdm2b
B2: Jhdm1a: member of the JmjC-domain-containing histone demethylase family, expressed from pMXs-FLAG retroviral vector (SEQ ID NO: 1 / 7) (protein)
chain: MEPEEERIRYSQRLRGTMRRRYEDDGISDDEIEGKRTFDLEEKLQTNKYNANFVTFMEGKDFNVEYIQRGGLRDPLIFKNSDGLGIKMPDPDFTVNDVKMCVGSRRMVDVMDVNTQKGIEMTMAQWTRYYETPEEEREKLYNVISLEFSHTRLENMVQRPSTVDFIDWVDNMWPRHLKESQTESTNAILEMQYPKVQKYCLMSVRGCYTDFHVDFGGTSVWYHIHQGGKVFWLIPPTAHNLELYENWLLSGKQGDIFLGDRVSDCQRIELKQGYTFVIPSGWIHAVYTPTDTLVFGGNFLHSFNIPMQLKIYSIEDRTRVPNKFRYPFYYEMCWYVLERYVYCITNRSHLTKDFQKESLSMDMELNELESGNGDEEGVDREARRMNNKRSVLTSPVANGVNLDYDGLGKACRSLPSLKKTLSGDSSSDSTRGSHNGQVWDPQCSPKKDRQVHLTHFELEGLRCLVDKLESLPLHKKCVPTGIEDEDALIADVKILLEELASSDPKLALTGVPIVQWPKRDKLKFPTRPKVRVPTIPITKPHTMKPAPRLTPVRPAAASPIVSGARRRRVRCRKCKACVQGECGVCHYCRDMKKFGGPGRMKQSCVLRQCLAPRLPHSVTCSLCGEVDQNEETQDFEKKLMECCICNEIVHPGCLQMDGEGLLNEELPNCWECPKCYQEDSSDKAQKRKIEESDEEAVQAKVLRPLRSCEEPLTPPPHSPTSMLQLIHDPVSPRGMVTRSSPGAGPSDHHSASRDERFKRRQLLRLQATERTMVREKENNPSGKKELSEVEKAKIRGSYLTVTLQRPTKELHGTSIVPKLQAITASSANLRPNPRVLMQHCPARNPQHGDEEGLGGEEEEEEEEEEDDSAEEGGAARLNGRGSWAQDGDESWMQREVWMSVFRYLSRKELCECMRVCKTWYKWCCDKRLWTKIDLSRCKAIVPQALSGIIKRQPVSLDLSWTNISKKQLTWLVNRLPGLKDLLLAGCSWSAVSALSTSSCPLLRTLDLRWAVGIKDPQIRDLLTPPTDKPGQDNRSKLRNMTDFRLAGLDITDATLRLIIRHMPLLSRLDLSHCSHLTDQSSNLLTAVGSSTRYSLTELNMAGCNKLTDQTLFFLRRIANVTLIDLRGCKQITRKACEHFISDLSINSLYCLSDEKLIQKIS
modifications: FLAG tag; nucleotide acid sequence of coding regions for kdm2a

Tested on: OG2 mouse embryonic fibroblasts
Assay: Induction of pluripotent stem cells (reprogramming) from OG2 mouse embryonic fibroblasts; GFP fluorescence clones counted
Assay type: cell-based
Settings: for induction of pluripotent stem cells with only SO, KO or Oct4: Jhdm1a and Jhdm1b together, mES medium with 50 μg/ml vitamin C, FIG. 3; for induction of pluripotent stem cells with only SO, KO or Oct4 / efficiency of reprogramming (inducing pluripotent stem cells) mediated by SKO / efficiency of reprogramming (inducing pluripotent stem cells) mediated by SKOM: control pMXs-FLAG empty vector; for efficiency of reprogramming (inducing pluripotent stem cells) mediated by SKO: with Klf4, Sox2, Oct4 (SKO); for efficiency of reprogramming (inducing pluripotent stem cells) mediated by SKO / efficiency of reprogramming (inducing pluripotent stem cells) mediated by SKOM: whether vitamin C present or not; for efficiency of reprogramming (inducing pluripotent stem cells) mediated by SKOM: with Klf4, Sox2, c-Myc, Oct4 (SKOM)

| Molecule | effect of vitamin C on reprogramming by Oct4 with Jhdm1b (Oct4 + Jhdm1b (OB), vitamin C present) | effect of vitamin C on improvement of reprogramming efficiency, SKO (SKO plus Jhdm1a or Jhdm1b, vitamin C in inducing medium (50 μg/mL), FIG. 1) | effect of vitamin C on improvement of reprogramming efficiency, SKOM (SKOM plus Jhdm1a or Jhdm1b, vitamin C in inducing medium (50 μg/mL), FIG. 2) | induction of pluripotent stem cells with only SO, KO or Oct4 | completion of reprogramming by combination with Oct4 alone (Oct4 + Jhdm1b (OB), common culture medium without vitamin C) | efficiency of reprogramming (inducing pluripotent stem cells) mediated by SKO (FIG. 1) | efficiency of reprogramming (inducing pluripotent stem cells) mediated by SKOM (FIG. 2) |
| --- | --- | --- | --- | --- | --- | --- | --- |
| O=C1O[C@H]([C@@H](O)CO)C(O)=C1O [vitamin C, reference compound] | achieves more significant effects | the improvement was more significant | the improvement was more significant | – | – | – | – |
| B1 | – | – | – | acted together to enable the induction of pluripotent stem cells | can complete reprogramming in a common culture medium | obviously improved the efficiency of reprogramming | obviously improved the efficiency of reprogramming |
| B2 | – | – | – | acted together to enable the induction of pluripotent stem cells | – | obviously improved the efficiency of reprogramming | obviously improved the efficiency of reprogramming |
